{"source": "paper PMC8191795", "about": "(Nucleic Acids Research, 2020)", "binders": {"B1": {"name": "PvvpE (AB324/AB325) (dsDNA)", "DNA 1": "ATAAATCAAATTTGTAACTTTATTTCTGAGATGACTGTCCCATTTATCTTATTGATAAATCTGCGTAAAAAAGAAAAAGCACAATTTTATTACTAGTGTTT", "DNA 2": "AAACACTAGTAATAAAATTGTGCTTTTTCTTTTTTACGCAGATTTATCAATAAGATAAATGGGACAGTCATCTCAGAAATAAAGTTACAAATTTGATTTAT"}, "B2": {"name": "PluxC site E T4A (JDN44/JDN45) (dsDNA)", "DNA 1": "TCTAATTATAGTTTGATTTATTAATAATTAGT", "DNA 2": "ACTAATTATTAATAAATCAAACTATAATTAGA"}, "B3": {"name": "PluxC site E T4A,A17T (JCV1107/JCV1108) (dsDNA)", "DNA 1": "B2 DNA 1 with A10T", "DNA 2": "B2 DNA 2 with T23A"}, "B4": {"name": "PluxC site E A17T (JDN46/JDN47) (dsDNA)", "DNA 1": "B2 DNA 1 with A10T, A23T", "DNA 2": "B2 DNA 2 with T10A, T23A"}, "B5": {"name": "PvvpM (AB316/AB317) (dsDNA)", "DNA 1": "ACACTTATCTTTAGTGACAAACTCATAAATAGCAAGTTCTCACACGGTC", "DNA 2": "GACCGTGTGAGAACTTGCTATTTATGAGTTTGTCACTAAAGATAAGTGT"}, "B6": {"name": "SmcR wild-type, untagged (Vibrio vulnificus) (natural protein)", "chain": "MDSIAKRPRTRLSPLKRKQQLMEIALEVFARRGIGRGGHADIAEIAQVSVATVFNYFPTREDLVDEVLNHVVRQFSNFLSDNIDLDLHAKENIANITNAMIELVVQDNHWLKVWFEWSASTRDEVWPLFVTTNRTNQLLVQNMFIKAIERGEVCDQHNPEDLANLFHGICYSLFVQANRTNNTAELSKLVSSYLDMLCIYKREHE"}, "B7": {"name": "SmcR wild-type, 6Xhis-tagged (Vibrio vulnificus) (natural protein)", "chain": "B6 chain"}, "B8": {"name": "SmcR N55I, untagged (Vibrio vulnificus) (natural protein)", "chain": "B6 chain with N55I"}}, "key": {"SmcR WT": {"target": "T1, SmcR WT (Vibrio vulnificus, UniProt Q9L8G8 1-205)", "T1 sequence": "B6 chain", "test": "EMSA"}, "SmcR S76A": {"target": "T2, SmcR S76A (Vibrio vulnificus, UniProt Q9L8G8 1-205, S76A)", "T2 sequence": "B6 chain with S76A", "test": "EMSA"}, "SmcR L139R": {"target": "T3, SmcR L139R (Vibrio vulnificus, UniProt Q9L8G8 1-205, L139R)", "T3 sequence": "B6 chain with L139R", "test": "EMSA"}, "SmcR N55I": {"target": "T4, SmcR N55I (Vibrio vulnificus, UniProt Q9L8G8 1-205, N55I)", "T4 sequence": "B6 chain with N55I", "test": "EMSA"}, "SmcR N142D": {"target": "T5, SmcR N142D (Vibrio vulnificus, UniProt Q9L8G8 1-205, N142D)", "T5 sequence": "B6 chain with N142D", "test": "EMSA"}, "[1]": {"target": "his-tagged V. harveyi RNAP alpha subunit (Vibrio harveyi, UniProt A0A0B4IMU9 1-330)", "test": "BLI"}, "SAXS [2]": {"target": "the molecule itself", "test": "SAXS"}, "SAXS [3]": {"target": "the molecule itself", "test": "SAXS", "remark": "listed apart in the source"}}, "note": "Numbering of substitutions follows the chain as printed. In names and notes the source's numbering stands. Several values for one entry are separate records, joined by “and”; a condition that tells them apart may be missing. Equal entries are not always repeated. Where two headings read alike, the source gives them in different places.", "data": [{"binder": "B1", "values": [{"measurement": "Kd", "setting": "SmcR WT", "result": 2.18, "unit": "nM"}, {"measurement": "Kd", "setting": "SmcR S76A", "result": 0.363, "unit": "nM"}, {"measurement": "Kd", "setting": "SmcR L139R", "result": 3.53, "unit": "nM"}, {"measurement": "Kd", "setting": "SmcR N55I", "result": 142, "unit": "nM"}, {"measurement": "Kd", "setting": "SmcR N142D", "result": 6.68, "unit": "nM"}]}, {"binder": "B2", "values": [{"measurement": "Kd", "setting": "SmcR WT", "result": 1.53, "unit": "nM"}, {"measurement": "Kd", "setting": "SmcR N55I", "result": 13.4, "unit": "nM"}]}, {"binder": "B3", "values": [{"measurement": "Kd", "setting": "SmcR WT", "result": 2.04, "unit": "nM"}, {"measurement": "Kd", "setting": "SmcR N55I", "result": 1.91, "unit": "nM"}]}, {"binder": "B4", "values": [{"measurement": "Kd", "setting": "SmcR WT", "result": 2.71, "unit": "nM"}, {"measurement": "Kd", "setting": "SmcR N55I", "result": 44.6, "unit": "nM"}]}, {"binder": "B5", "values": [{"measurement": "Kd", "setting": "SmcR WT", "result": 0.143, "unit": "nM"}, {"measurement": "Kd", "setting": "SmcR S76A", "result": 0.167, "unit": "nM"}, {"measurement": "Kd", "setting": "SmcR L139R", "result": 0.322, "unit": "nM"}, {"measurement": "Kd", "setting": "SmcR N55I", "result": 0.266, "unit": "nM"}, {"measurement": "Kd", "setting": "SmcR N142D", "result": 0.568, "unit": "nM"}]}, {"binder": "B6", "values": [{"measurement": "Kd", "setting": "[1]", "result": 142, "unit": "nM"}]}, {"binder": "B7", "values": [{"measurement": "stoichiometry N", "setting": "SAXS [2]", "result": "2 and 4"}]}, {"binder": "B8", "values": [{"measurement": "Kd", "setting": "[1]", "result": 160, "unit": "nM"}, {"measurement": "stoichiometry N", "setting": "SAXS [3]", "result": "2 and 4"}]}]}
